Assays:
[1] = biological target: T1, mycATAD3A (ATAD3A with a myc tag at the 5' end) (human, UniProt Q9NVI7 2-586); assay: immunoprecipitation from lysate of transfected HEK293T cells, immunoblot with anti-myc
T1 construct: Expressed in transfected HEK293T cells and immunoprecipitated from a 1% Triton X-100 lysate; also called 5' myc-tagged ATAD3A
T1 sequence: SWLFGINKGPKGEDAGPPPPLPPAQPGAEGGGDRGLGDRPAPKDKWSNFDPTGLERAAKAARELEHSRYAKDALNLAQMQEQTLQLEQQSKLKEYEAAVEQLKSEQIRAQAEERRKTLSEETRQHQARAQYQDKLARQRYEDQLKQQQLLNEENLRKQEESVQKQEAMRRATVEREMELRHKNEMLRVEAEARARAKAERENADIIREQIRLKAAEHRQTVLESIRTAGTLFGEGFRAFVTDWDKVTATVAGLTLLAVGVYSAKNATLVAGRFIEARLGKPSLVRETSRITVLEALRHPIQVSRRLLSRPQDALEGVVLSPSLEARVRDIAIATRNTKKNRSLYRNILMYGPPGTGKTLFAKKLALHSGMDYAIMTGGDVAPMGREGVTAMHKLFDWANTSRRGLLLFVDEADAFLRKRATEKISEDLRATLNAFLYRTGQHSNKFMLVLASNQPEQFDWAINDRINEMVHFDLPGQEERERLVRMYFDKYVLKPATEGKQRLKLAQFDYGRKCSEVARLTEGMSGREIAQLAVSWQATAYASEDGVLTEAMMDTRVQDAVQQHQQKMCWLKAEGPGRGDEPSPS

[2] = biological target: T2, ATAD3Amyc (ATAD3A with a myc tag at the 3' end) (human, UniProt Q9NVI7 1-586); assay: as above
T2 construct: Expressed in transfected HEK293T cells and immunoprecipitated from a 1% Triton X-100 lysate; also called 3' myc-tagged ATAD3A; not shown: C-terminal myc tag, in frame from vector pcDNA3.1/hismycA
T2 sequence: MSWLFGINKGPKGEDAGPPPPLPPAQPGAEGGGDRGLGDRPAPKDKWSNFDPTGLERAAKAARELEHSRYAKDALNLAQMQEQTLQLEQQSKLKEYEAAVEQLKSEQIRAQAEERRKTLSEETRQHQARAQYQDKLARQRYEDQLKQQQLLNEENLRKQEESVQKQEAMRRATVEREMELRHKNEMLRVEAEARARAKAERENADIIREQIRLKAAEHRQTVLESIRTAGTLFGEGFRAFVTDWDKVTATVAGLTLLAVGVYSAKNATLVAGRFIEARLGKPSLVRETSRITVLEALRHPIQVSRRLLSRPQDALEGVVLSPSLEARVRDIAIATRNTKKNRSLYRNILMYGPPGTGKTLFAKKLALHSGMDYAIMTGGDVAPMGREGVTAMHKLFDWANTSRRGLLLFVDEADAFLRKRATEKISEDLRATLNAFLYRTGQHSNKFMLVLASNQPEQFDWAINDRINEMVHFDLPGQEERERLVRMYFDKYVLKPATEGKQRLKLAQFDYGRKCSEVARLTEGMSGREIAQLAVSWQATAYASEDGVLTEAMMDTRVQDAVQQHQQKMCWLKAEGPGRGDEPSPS

[3] = biological target: T3, ATAD3A (human protein having the amino acid sequence SEQ ID NO:6) (human, UniProt Q9NVI7 2-586, limits assumed); assay: CR2361 affinity column loaded with NB4 cell lysate, elution at pH 2.7, SDS-PAGE bands identified by MALDI-MS
T3 construct: Endogenous protein from a RIPA lysate of NB4 cells; Bands of 30, 40 and 75 kDa eluted from the CR2361 column gave ATAD3A peptides; No peptides were identified from the 150 kDa band
T3 sequence: T1 sequence
Description: In advance the IgG1s were passed over a 100 kDa ultracentrifugal device to remove incomplete small IgG fragments.
For the purification of the target antigen of CR2361, an affinity column was prepared as described above for CR2401. A cell lysate of 4*10⁹ NB4 cell was prepared in RIPA buffer, according to the method described in Example 5. The cell lysate was treated essentially as described above and applied to the negative control affinity column that was connected in series to the CR2361 affinity column and an AKTA FPLC 900. The system was equilibrated with RIPA buffer. The lysate was applied to the columns at 1 ml/min and the columns were washed with 5 column volumes of RIPA buffer, followed by a salt gradient from 150 mM NaCl to 500 mM NaCl, a wash with 5 column volumes TX-100 buffer (1% Triton X-100, 150 mM NaCl, 50 mM Tris pH 7.4, protease inhibitors (Roche)) and an elution of 5 column volumes glycine, pH 2.7, whereby after 1 column volume of elution buffer the flow through was put for 10 minutes on hold to enhance the release of immune complexes. Next, the column was washed with 5 column volumes of TX-100 buffer. The eluted fractions of 0.5 ml were neutralized with 20 μl 2 M Tris/HCl, pH 7.4, and 20 μl of the samples were run on a non-reducing SDS-PAGE Criterion gel and stained with silver stain according to standard techniques known to the skilled artisan. […]

Measured: binding result

B1: CR2361 IgG1 (antibody, V domains shown)
VH: EVQLVESGGGLVQPGRSLRLSCAASGFTFDDYGMSWVRQAPGKGLEWVSLISWDGGSTYYADSVKGRFTISRDNSKNSLYLQMNSLRAEDTAVYYCAKWAPSHSFDYWGQGTLVTVSS
VL: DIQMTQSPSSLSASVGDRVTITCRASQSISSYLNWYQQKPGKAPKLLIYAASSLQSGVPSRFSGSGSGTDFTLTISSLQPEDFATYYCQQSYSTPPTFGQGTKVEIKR
notes: also called IgG1 CR2361; CR24361 (apparent misprint)
binds: all assays above

Source: patent US20100297153A1 (CRUCELL HOLLAND B V, published 2010)
